Patent US20130330358A1 (UNIVERSITY OF SOUTHERN CALIFORNIA, published 2013)

How the values were obtained:
[1] = biological target: HAUSP TRAF domain (HAUSP^62-205) (human); test: ITC, titration against HAUSP TRAF domain, 20 °C
[2] = biological target: HAUSP TRAF domain (HAUSP^62-205) (human); test: competitive ITC: vIRF4^202-216 titrated into TRAF pre-titrated with p53^350-364 (competitor)
[3] = biological target: HAUSP TRAF domain (HAUSP^62-205) (human); test: competitive ITC: vIRF4^202-216 titrated into TRAF pre-titrated with p53^355-369 (competitor)
[4] = biological target: HAUSP TRAF domain (HAUSP^62-205) (human); test: competitive ITC: vIRF4^202-216 titrated into TRAF pre-titrated with MDM2^137-152 (competitor)
[5] = biological target: HAUSP TRAF domain (HAUSP^62-205) (human); test: ITC

Chain of HAUSP TRAF domain (HAUSP^62-205) (human) (chain, as listed by the source): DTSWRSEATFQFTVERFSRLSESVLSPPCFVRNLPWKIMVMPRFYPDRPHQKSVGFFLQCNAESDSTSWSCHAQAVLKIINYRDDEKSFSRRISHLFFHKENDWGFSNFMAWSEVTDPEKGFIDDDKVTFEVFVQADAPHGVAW

B1: vIRF4^202-216 peptide (vif1) (peptide)
peptide: SVWIPVNEGASTSGM
notes: Synthesized peptide (Peptron); also called vif1 peptide
[1]
  TΔS: -10.6 kcal/mol
  ΔG: -8.6 kcal/mol
  ΔH: -19.2 kcal/mol
[2]
  ΔHobs: -19.1 kcal/mol
[3]
  ΔHobs: -19.1 kcal/mol
[4]
  ΔHobs: -25.9 kcal/mol

B2: vIRF4^153-256 (other)
chain: SDTREQSYEEAGAAAPAPPKAPSGLRGRPRKSNRYYNVGDITTEQKAACSVWIPVNEGASTSGMGSSGTRQVTQASSFTWRVPGDPPAPSTLTGPSDPHSSGAG
[5]
  fold higher affinity (against vIRF4^153-216): 7 fold
